± gives the uncertainty stated by the source.
Test: specific initial activity, cyclohex-2-enone reduction (U mg-1); higher = more active
Method: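 Specific initial activity of purified ene reductases with 10 mM cyclohex-2-enone and 0.2 mM NAD(P)H in 50 mM sodium phosphate pH 7.4 with 0-45% (v/v) ethanol or methanol, at set reaction temperatures of 25-45 °C. NAD(P)H depletion was followed at 340 nm for 480 s, in triplicate.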

MSFVKDFKPQALGDTNLFKPIKIGNNELLHRAVIPPLTRMRALHPGNIPNRDWAVEYYTQRAQRPGTMIITEGAFISPQAGGYDNAPGVWSEEQMVEWTKIFNAIHEKKSFVWVQLWVLGWAAFPDNLARDGLRYDSASDNVFMDAEQEAKAKKANNPQHSLTKDEIKQYIKEYVQAAKNSIAAGADGVEIHSANGYLLNQFLDPHSNTRTDEYGGSIENRARFTLEVVDALVEAIGHEKVGLRLSPYGVFNSMSGGAETGIVAQYAYVAGELEKRAKAGKRLAFVHLVEPRVTNPFLTEGEGEYEGGSNDFVYSIWKGPVIRAGNFALHPEVVREEVKDKRTLIGYGRFFISNPDLVDRLEKGLPLNKYDRDTFYQMSAHGYIDYPTYEEALKLGWDKK
specific initial activity
Conditions | co-solvent: ethanol | co-solvent: methanol
co-solvent concentration (% v/v): 0, reaction temperature 25 °C | 0.2 ± 0.02 | 0.24 ± 0.02
co-solvent concentration (% v/v): 0, reaction temperature 30 °C | 0.23 ± 0.03 | 0.21
co-solvent concentration (% v/v): 0, reaction temperature 35 °C | 0.36 ± 0.02 | 0.37
co-solvent concentration (% v/v): 0, reaction temperature 40 °C | 0.33 ± 0.18 | 0.23 ± 0.06
co-solvent concentration (% v/v): 0, reaction temperature 45 °C | 0.1 ± 0.12 | 0.07 ± 0.05
co-solvent concentration (% v/v): 5, reaction temperature 25 °C | 0.28 ± 0.05 | 0.21 ± 0.12
co-solvent concentration (% v/v): 5, reaction temperature 30 °C | 0.32 ± 0.02 | 0.29
co-solvent concentration (% v/v): 5, reaction temperature 35 °C | 0.47 ± 0.02 | 0.46 ± 0.02
co-solvent concentration (% v/v): 5, reaction temperature 40 °C | 0.34 ± 0.08 | 0.25 ± 0.07
co-solvent concentration (% v/v): 5, reaction temperature 45 °C | 0.17 ± 0.1 | 0.12 ± 0.1
co-solvent concentration (% v/v): 10, reaction temperature 25 °C | 0.27 ± 0.02 | 0.3 ± 0.02
co-solvent concentration (% v/v): 10, reaction temperature 30 °C | 0.37 ± 0.02 | 0.36 ± 0.01
co-solvent concentration (% v/v): 10, reaction temperature 35 °C | 0.52 ± 0.03 | 0.52 ± 0.07
co-solvent concentration (% v/v): 10, reaction temperature 40 °C | 0.21 ± 0.12 | 0.17 ± 0.07
co-solvent concentration (% v/v): 10, reaction temperature 45 °C | 0.12 ± 0.08 | 0.08 ± 0.07
co-solvent concentration (% v/v): 15, reaction temperature 25 °C | 0.32 ± 0.02 | 0.33 ± 0.03
co-solvent concentration (% v/v): 15, reaction temperature 30 °C | 0.36 ± 0.01 | 0.4 ± 0.03
co-solvent concentration (% v/v): 15, reaction temperature 35 °C | 0.52 ± 0.05 | 0.55 ± 0.04
co-solvent concentration (% v/v): 15, reaction temperature 40 °C | 0.09 ± 0.05 | 0.09 ± 0.07
co-solvent concentration (% v/v): 15, reaction temperature 45 °C | 0.05 | 0.04 ± 0.04
co-solvent concentration (% v/v): 20, reaction temperature 25 °C | 0.36 ± 0.02 | 0.37 ± 0.04
co-solvent concentration (% v/v): 20, reaction temperature 30 °C | 0.35 ± 0.02 | 0.43 ± 0.01
co-solvent concentration (% v/v): 20, reaction temperature 35 °C | 0.32 ± 0.09 | 0.4 ± 0.08
co-solvent concentration (% v/v): 20, reaction temperature 40 °C | 0.02 | 0.02 ± 0.04
co-solvent concentration (% v/v): 20, reaction temperature 45 °C | 0.02 ± 0.03 | 0.01 ± 0.01
co-solvent concentration (% v/v): 25, reaction temperature 25 °C | 0.27 ± 0.03 | 0.31 ± 0.06
co-solvent concentration (% v/v): 25, reaction temperature 30 °C | 0.21 ± 0.02 | 0.3 ± 0.01
co-solvent concentration (% v/v): 25, reaction temperature 35 °C | 0.03 ± 0.02 | 0.06 ± 0.04
co-solvent concentration (% v/v): 25, reaction temperature 40 °C | 0.01 ± 0.01 | 0.02 ± 0.01
co-solvent concentration (% v/v): 25, reaction temperature 45 °C | 0.01 ± 0.01 | 0.02 ± 0.01
co-solvent concentration (% v/v): 30, reaction temperature 25 °C | 0.15 ± 0.05 | 0.19 ± 0.03
co-solvent concentration (% v/v): 30, reaction temperature 30 °C | 0.15 ± 0.06 | 0.14 ± 0.02
co-solvent concentration (% v/v): 30, reaction temperature 35 °C | 0.02 ± 0.02 | 0.01
co-solvent concentration (% v/v): 30, reaction temperature 40 °C | 0.01 ± 0.01 | 0.01 ± 0.01
co-solvent concentration (% v/v): 30, reaction temperature 45 °C | 0.02 ± 0.01 | 0 ± 0.01
co-solvent concentration (% v/v): 35, reaction temperature 25 °C | 0.07 ± 0.04 | 0.03 ± 0.02
co-solvent concentration (% v/v): 35, reaction temperature 30 °C | 0.03 ± 0.03 | 0.04 ± 0.03
co-solvent concentration (% v/v): 35, reaction temperature 35 °C | 0.01 ± 0.02 | 0.01
co-solvent concentration (% v/v): 35, reaction temperature 40 °C | 0.01 ± 0.01 | 0
co-solvent concentration (% v/v): 35, reaction temperature 45 °C | 0.03 | 0
co-solvent concentration (% v/v): 40, reaction temperature 25 °C | 0.02 ± 0.02 | 0.02 ± 0.02
co-solvent concentration (% v/v): 40, reaction temperature 30 °C | 0.02 ± 0.01 | 0.03 ± 0.01
co-solvent concentration (% v/v): 40, reaction temperature 35 °C | 0.01 | 0 ± 0.01
co-solvent concentration (% v/v): 40, reaction temperature 40 °C | 0.01 ± 0.01 | 0.01 ± 0.01
co-solvent concentration (% v/v): 40, reaction temperature 45 °C | 0.01 ± 0.01 | 0.01 ± 0.01
co-solvent concentration (% v/v): 45, reaction temperature 25 °C | 0.01 ± 0.02 | 0.01
co-solvent concentration (% v/v): 45, reaction temperature 30 °C | 0.04 ± 0.04 | 0.03
co-solvent concentration (% v/v): 45, reaction temperature 35 °C | 0.02 | 0.01
co-solvent concentration (% v/v): 45, reaction temperature 40 °C | 0.01 ± 0.02 | 0.01 ± 0.01
co-solvent concentration (% v/v): 45, reaction temperature 45 °C | 0.02 ± 0.01 | 0 ± 0.01

— the supplement of paper PMC11208486
